Test: yeast display, Sf9 membrane polyspecificity reagent, FACS + sequencing; frameworks hold sequencing errors
In short: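 A synthetic nanobody library was expressed on Saccharomyces cerevisiae BJ5465 by galactose induction for 36–48 hours. The library was stained for 1 hour at 4 °C with 10% biotinylated, detergent-solubilized Sf9 membrane reagent and enriched with streptavidin microbeads before FACS. Low and high (top ~1%) gates were set on anti-HA fluorescence for expression and streptavidin fluorescence for reagent binding, and each polyreactivity label reflects the gate of origin.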

Sequence | polyreactivity (PSR sort gate)
QVQLVESGGGLVQAGGSLRLSCAASGRTFHTNAMGWYRQAPGKERELVAAITRSGSGTYYADSVKGRFTISRDNAKNTVYLQMNSLKPEDTAVYYCNAVRRGEYDYWGQGTQVTVSS | high polyreactivity
QFQLVESGGRLVQAGGSLRLSCAASGSIFYLNAIGSYRQAPGKERELVAAISRSGGRTYYADSVKGRFTISRDNAKNTVYLQMNSLIPEDTAVYYCAADVQAQGAYRGGYWGQGTQVTVSS | high polyreactivity
QVQLVESAGGLVQAGGSLRLSCAASGTFYYYAMGWYRQAPGKERELVAAISNGDSTTYADSVKGRFTISRDNAKNTVYLQMNSLNPEDTAVYYCAAYRYTPRTSRGYYYWGQGTQVTVSS | low polyreactivity
QFQLVESGGGLVQAGGSLRLICAASGFIFWYNAMGWYRQSPGKEREFVAAISSGGSTTYADSVKGRFTISRDNALITVYLQMNSLKPEDTAVYYCAAGSYDYDYWGQGTQVTVSS | low polyreactivity
QVQLVESGGGLVQAGGSLRLSCAASGSIFAYNDMGWYRQAPGKERELVAAIRNGGRTNYADSVKGRFTISRDNAKNTVYLQMNSLKPEDTAVDYWAALNYYGSDYWGQGTQVTVSS | high polyreactivity
QVQLVESGGGLVQAGGSLRLSCAASGFTIIRYAMGWYRPAPGKERELVATITRRGGSTYYADSVKGRFTISRDNAKNTVYLQMNSLKPEDTAVYYCAARIRPLYANVRYGYWGQGTQVTVSS | high polyreactivity
QVQLVESGGGLVQAGGSLRLSCAASGSTFYGNAMVWYIQAPGKERELVAAIRWRGGRTYYADSVKGRFTNSRDNAKYTVYLKLNSLIPEDTAVYDCNALPGVSDTQYDRVGYWGQGTQVTVSS | high polyreactivity
QVQLVESGGGLVQAGGSLRLSCAASGSIFVTYAMGWYRQAPWKDWELVAAISTSGGSTYADSVKGRFTISRDNAKNTVYLQMNSLKPVDTAVYYCNADDPGYAVPWYWFKYDYWGQGTQVTVSS | low polyreactivity
QVQLVESGGGLVQAGGSLRLSCAASGSTFYTYAMGWYRQAPGKERELVAAISWRTGSTYYADSVKGRFTISRDNAKNTVYLQMNSLKPEDTAVYYCATDYYIDTWDWYEEYEYWGQGTQVTVSS | high polyreactivity
QVQHVESGGGLVQAGGSLRLSCAASGFIFTSYAMGWYRQAPGKERELVAVISASDGSTYYADSVKGRFTISRDNAKNTVYLQMNILKPEDTAVYYCNATEYLGGGGIVHVEFGYWGQGTQVTVSS | low polyreactivity
QVQLVESGGGLVQAGGSLRLSCAASGSIFNYNMGWYRQAPGKERELVAAVSTNYADSVKGRFTISRDNAKNTVYLQMNSLKPEDPAGYYCGVTPEKSGDQYDYWGPGTQVTVSS | low polyreactivity
QDQLVESGGGLVQAGGSLRLSCAATGRIFVYYAMGWSRQAPGKERELVATISSGGSTYYADSVKGRFTISRDNAKNTVYLQMNSLKPDDTAVYYCAADNVNLYLAYYYKGDYWGQGTQVTVSS | low polyreactivity
QVQLVESAGGLVQAGGSLRLSCAASGSTIYGCVMGWYRHAPGKERELVAGITRGGSTNYADSVKGRFTISRDNAKNTVYLQMNSLKPEDTAVYYCATRYFSRYYYWGQGTQVTVSS | high polyreactivity
QVQLVESGGGLVQAGGSLRLICAASGSTFGPYSMGWYRQAPGKERELVAAIDQISSSTHYADSVKGRFTISRDNAKNTVYLQMNSLKPEDTAVYYCNADEFRYGYFPHYDYWGQGTQVTVSS | low polyreactivity
QVQLVESWGGLVQAGGSLRLSCAASGGTFGNNDMGWYRQAPGKERELVAAIRSAGTTYYADSVKGRFTISRDNAKNTVYLQMNSLKPEDTAVYYCNADTTGYWSYGFQYYGEDYWGQGTQVTVSS | low polyreactivity
QVQLVESGGGLVQAGGSLRLSCAASGRIFEVYAMGWYRQAPGKERELVAAIRSGGNTYYADSVKGRFTISRDNAKNTVYLQMISLKPEDTAVYYCAARYKPPFGGYTYYYWGQGTQVTVSS | high polyreactivity

Sequence | polyreactivity (PSR sort gate)
QVQLVESGGGLVQAGGSLRLSCAASGHIFFYYTMGWYRQAPGKERELVAGITIGGSTNYADSVKGRFTISRDNAKNTVYLQMNSLKPEDTAVYYCNVVKYVYIYTYWEYYYWGQGTQVTVSS | low polyreactivity
QVQLVESGGGLVQAGGSLRISCAASGLTFDYNAMGWYTQAPGKERELVAAITSGGSTKYADSVKGRFTISRDNSKNTVYLQMNSLKPEDTAVYYCARDRPGDYAGYDYWGQGTQVTVSS | low polyreactivity
QVQLVESGGGLFQAGGSLRLSCAASGIIFRGNAMGWYRQATVKERELVAAISKSGGRTYYADSVKGRFTISRDNAKNTVYLEMICLKPEDSAVYYCAARFYAVGGYDYWGQGTQVTVSS | high polyreactivity
QVQLVESGGGLVQAGGSLRLSCAASGSSFISNAKGWYRQAPGKERELVAAINWTTGRTRYADSVQGRFTISRDNAKNSVYLQMNSLKAEDTAVYYCAKYSRKWYGAYYFWGQGTQVNVSS | high polyreactivity
QVQLVESGGGLVQAGGSLRLSCAASGSIFSQYAMGWYRQAPGKERELVAAITSSGGRTYYADSVKGRFTISRDNAKNTVYLQMNSLKPEDTAVYYCAARPYSKRHEYWGQGTQVTVSS | high polyreactivity
QVQLVESGGGLVQAGGSLRLSCAASGRTIWYYAKGWYRQAPGKERELVAAITRGGRTNYADSVKGRFTISRDNAKNTVDLQMNSLKPEDTAVYYCAADYRDPAHSYGYWGQGTQVTVSS | high polyreactivity
QVQLVETGGGLVQAGGSLRLSCAASGSIFYVYAMGWYRQAPRKERELVAAINTSGGSTYADSVKGRFTISRDNAKNTDYLQMNSLKPEDTAVYYCAADGYYEYTWGEYDSWGQGTQVTVSS | low polyreactivity
QVQLVESGGGLVQAGGSLRLSCSASGGIFSAYAMGWYRQSPGKERELVAAISRTGGSTYYADSVKGRFTISRDNAKNTVYLQMNSLKPEDTAVYYCNAVYRRYPEFDYWGQGTQVTVSS | high polyreactivity
QVQLEESGGGLVQAGGSLRLSCAASGFTFYYYTMGWYRQAPGKERELVAAITWRGGSTNYADSVKGRFTISRDNAKNTVYLQMNSLKPEEPAVYYCAAVTYWFWPGMDYWGQGTQVTVSS | low polyreactivity
QVQLVESGGGLVQAGGSLRLSCAASGFTFRIYAMGWYRQAPGKERELVAAISWSGGSTYYADSVKGRFTISRDNAKNTVYLQMNSLKPEDTAVYYCATDSHRSQRHYAYDGDYWGQGTQVTVSS | high polyreactivity
QVQLVESGGGLVQAGGSLRLSCAASGRTFRYYTMGWYRQAPGKEREFVAAISSTGGTYYADSVKGRFTISRDNAKNTVYLQMNSLKPEDTAVFYGAATFIQVVVNGQLYDYDYWGQGTQVTVSS | low polyreactivity
QVQLVESGGGLVQAGGSLRLSCAASGRIFYLYAMGWYRQAPGKERELVAGITSGGRTNYADSVKGRFTISRDNAKNTVYLQMNSLKPEDTAVYYCAAYYWGRYTGYYWGQGTQVTVSS | high polyreactivity
QVKLVESGGGLVQAGASLRLSVAASGNIFSVNTIGTYRQAPGKERELVAAITRRSGRTYYADSVKGRFTISRDNAKNTVFLQMNSLNPEDTAVYYCAASWRGASVIRFDYWGQGTQVTVSS | high polyreactivity
QVQLVESGGGLVQAGGSLRLSCAASGSTFVRNAMGWYRQAPGKERELVAAITSSGGSTYYADSVKGRFTISRDNAKYSVYLQMNSLKPEDTAVYYCAKRRYYRYDYWGQGTQVTVSS | low polyreactivity
QVQLVESGGGLVQAGGSLRLSCAASGSIFGTYAMGWDRQARGQERALGAAIRWSSGSTYYADSVNGRFTISRDNATNTESLQMNSLKPADTAVYYCNAEYVYYWLGATFGYWGQGTQVTVSS | high polyreactivity
QVQLVESGGGLVQAGGSLRLSCASSGTFRLYAMGWYRQAPGKEREFVAAITSGGRTYADSVKGRFTISRDNAKNTVYLQMNSLKPEDTAVYYCAADAGRILFSGYDYWGQGTQVTVSS | low polyreactivity

From the nanobody polyreactivity screen of Harvey et al. (2022)
